From publication PMC9747329 (ACS chemical biology, 2022)
Residues, ends and D or L forms follow the SMILES beside them. No end group written: not given here. *: point of attachment. X1 = CN(C)c1ccc2c(-c3cc(C(=O)*)ccc3C(=O)[O-])c3ccc(=[N+](C)C)cc-3oc2c1

How the values were obtained:
[1] = molecular target: nLuc-PTHR1 (human parathyroid hormone receptor-1 with NanoLuc luciferase fused to the N-terminus) (human) (UniProt Q03431); assay: FRET or BRET
nLuc-PTHR1 = molecular target: T1, nLuc-PTHR1 (Homo sapiens, UniProt Q03431); assay type: binding; conditions: for koff / kon: HEK293
T1 sequence (Q03431 27-593): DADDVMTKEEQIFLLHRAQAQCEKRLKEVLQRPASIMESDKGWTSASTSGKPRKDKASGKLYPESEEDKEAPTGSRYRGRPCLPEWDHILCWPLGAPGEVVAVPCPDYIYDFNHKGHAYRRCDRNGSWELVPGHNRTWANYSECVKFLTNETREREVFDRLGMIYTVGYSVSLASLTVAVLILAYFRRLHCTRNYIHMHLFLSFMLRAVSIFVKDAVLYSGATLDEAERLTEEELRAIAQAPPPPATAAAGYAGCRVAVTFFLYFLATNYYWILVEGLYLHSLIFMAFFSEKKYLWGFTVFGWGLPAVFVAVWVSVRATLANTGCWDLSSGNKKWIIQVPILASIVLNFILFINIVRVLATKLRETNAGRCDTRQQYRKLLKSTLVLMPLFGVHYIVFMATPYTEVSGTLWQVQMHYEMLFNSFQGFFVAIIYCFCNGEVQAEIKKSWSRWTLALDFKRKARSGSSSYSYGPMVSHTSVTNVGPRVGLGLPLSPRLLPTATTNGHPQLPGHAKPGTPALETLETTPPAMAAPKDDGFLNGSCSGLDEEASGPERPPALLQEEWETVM

WT-PTHR1 = molecular target: T2, WT-PTHR1 (Homo sapiens, UniProt Q03431); assay: GloSensor cAMP assay in GP2.3 cells; assay type: cell-based; conditions: for Emax: HEK293, read-out: cAMP formation %Emax
T2 sequence (Q03431 27-593): T1 sequence (Q03431 27-593)

[2] = molecular target: nLuc-PTHR1 (human parathyroid hormone receptor-1 with NanoLuc luciferase fused to the N-terminus) (human) (UniProt Q03431)
[3] = molecular target: nLuc-ΔECD-PTHR1 (truncated PTHR1 lacking most of the extracellular domain, preceded by NanoLuc luciferase) (human) (UniProt Q03431); assay: FRET or BRET

Compound | Kd [1] [nM] | koff [1] [s⁻¹] | kon [1] [M⁻¹ s⁻¹] | cAMP formation (GloSensor): %Emax [2] [%] | cAMP formation (GloSensor): EC50 [2] [nM] | also measured
PTH(3-34)K35^TMR (peptide) | 27 | 0.0094 | 340000 |  |  | 
CC[C@H](C)[C@H](NC(=O)[C@H](CCCCNC(=O)c1ccc(C(=O)[O-])c(-c2c3ccc(=[N+](C)C)cc-3oc3cc(N(C)C)ccc23)c1)NC(=O)[C@H](C)NC(=O)[C@@H](NC(=O)[C@H](Cc1c[nH]cn1)NC(=O)[C@@H](NC(=O)[C@H](CCC(=O)O)NC(=O)[C@H](C)NC(=O)[C@@H](NC(=O)[C@H](CC(C)C)NC(=O)[C@H](Cc1c[nH]cn1)NC(=O)[C@H](Cc1c[nH]cn1)NC(=O)[C@H](CC(C)C)NC(=O)[C@H](Cc1ccccc1)NC(=O)[C@H](Cc1ccccc1)NC(=O)[C@H](CCCNC(=N)N)NC(=O)[C@H](CCCNC(=N)N)NC(=O)[C@H](CCCNC(=N)N)NC(=O)[C@H](CCSC)NC(=O)[C@H](CO)NC(=O)[C@H](CC(N)=O)NC(=O)[C@H](CC(C)C)NC(=O)[C@H](Cc1c[nH]cn1)NC(=O)[C@H](CCCCN)NC(=O)CNC(=O)[C@H](CC(C)C)NC(=O)[C@H](CC(N)=O)NC(=O)[C@H](Cc1c[nH]cn1)NC(=O)[C@H](CCSC)NC(=O)[C@H](CC(C)C)NC(=O)[C@H](CCC(N)=O)NC(=O)[C@@H](NC(=O)[C@H](CCC(=O)O)NC(=O)[C@H](CO)NC(=O)[C@@H](NC(=O)[C@@H](N)CO)C(C)C)[C@@H](C)CC)[C@@H](C)CC)[C@@H](C)CC)[C@@H](C)O)C(N)=O [PTH[1-18] PTHrP[19-36]] (H-SVSEIQLMHNLGKHLNSMRRRFFLHHLIAEIHTAK(X1)I-NH2; N-terminus assumed) |  |  |  |  |  | koff (nLuc-PTHR1): 0.0079 ± 0.001 s⁻¹; kon (nLuc-PTHR1): 320000 ± 70000 M⁻¹ s⁻¹; Emax (WT-PTHR1): 106 ± 1%
PTH(1-34)-N33K^TMR (peptide) | 11 | 0.0043 |  |  |  | 
PTH[1-18] PTHrP[19-36] hybrid, Lys35(TMR) (peptide) | 26 | 0.0079 | 320000 | 106 | 0.99 | 
PTHrP[1-16] PTH[17-34] hybrid, Lys35(TMR) (peptide) | 95 | 0.041 | 430000 | 105 | 0.48 | 
CC[C@H](C)[C@H](NC(=O)[C@H](CCCCNC(=O)c1ccc(C(=O)[O-])c(-c2c3ccc(=[N+](C)C)cc-3oc3cc(N(C)C)ccc23)c1)NC(=O)[C@H](C)NC(=O)[C@@H](NC(=O)[C@H](Cc1c[nH]cn1)NC(=O)[C@@H](NC(=O)[C@H](CCC(=O)O)NC(=O)[C@H](C)NC(=O)[C@@H](NC(=O)[C@H](CC(C)C)NC(=O)[C@H](Cc1c[nH]cn1)NC(=O)[C@H](Cc1c[nH]cn1)NC(=O)[C@H](CC(C)C)NC(=O)[C@H](Cc1ccccc1)NC(=O)[C@H](Cc1ccccc1)NC(=O)[C@H](CCCNC(=N)N)NC(=O)[C@H](CCCNC(=N)N)NC(=O)[C@H](CCCNC(=N)N)NC(=O)[C@H](CC(C)C)NC(=O)[C@H](CC(=O)O)NC(=O)[C@H](CCC(N)=O)NC(=O)[C@@H](NC(=O)[C@H](Cc1c[nH]cn1)NC(=O)[C@H](CCCCN)NC(=O)CNC(=O)[C@H](CC(C)C)NC(=O)[C@H](CC(N)=O)NC(=O)[C@H](Cc1c[nH]cn1)NC(=O)[C@H](CCSC)NC(=O)[C@H](CC(C)C)NC(=O)[C@H](CCC(N)=O)NC(=O)[C@@H](NC(=O)[C@H](CCC(=O)O)NC(=O)[C@H](CO)NC(=O)[C@@H](NC(=O)[C@@H](N)CO)C(C)C)[C@@H](C)CC)[C@@H](C)CC)[C@@H](C)CC)[C@@H](C)CC)[C@@H](C)O)C(N)=O [PTH[1-14] PTHrP[15-36]] (H-SVSEIQLMHNLGKHIQDLRRRFFLHHLIAEIHTAK(X1)I-NH2; N-terminus assumed) |  |  |  |  |  | koff (nLuc-PTHR1): 0.0022 ± 0.0009 s⁻¹; kon (nLuc-PTHR1): 350000 ± 40000 M⁻¹ s⁻¹; Emax (WT-PTHR1): 106 ± 1%
PTHrP[1-12] PTH[13-34] hybrid, Lys35(TMR) (peptide) | 49 | 0.029 | 590000 |  | 0.15 | 
LA-PTH(1-34)-35K^TMR (peptide) | 2.4 | 0.00056 | 230000 |  |  | Kd [3]: 72 nM; koff [3]: 0.0097 s⁻¹; kon [3]: 130000 M⁻¹ s⁻¹
PTH[1-12] PTHrP[13-36] hybrid, Lys35(TMR) (peptide) | 4.4 | 0.0035 |  | 107 | 0.55 | 
PTH[1-14] PTHrP[15-36] hybrid, Lys35(TMR) (peptide) | 6.1 | 0.0022 | 350000 | 106 | 0.89 | 
PTH(3-34): N-terminally truncated analogue of PTH(1-34) (SEIQLMHNLGKHLNSMERVEWLRKKLQDVHNF-NH2; UniProt P01270 34-65, looked up, fragment) [reference compound] |  |  |  |  |  | agonist activity, cAMP production via the PTHR1 (in words) (WT-PTHR1): only minimal activity
PTH(1-34)K35^TMR, I5H variant (peptide) | 104 | 0.071 | 440000 |  |  | 
PTH(2-34)K35^TMR (peptide) | 21 | 0.0053 | 250000 |  |  | 
PTHrP[1-14] PTH[15-34] hybrid, Lys35(TMR) (peptide) | 63 | 0.043 | 680000 | 97 | 0.39 | 
CC[C@H](C)[C@H](NC(=O)[C@H](CCCCNC(=O)c1ccc(C(=O)[O-])c(-c2c3ccc(=[N+](C)C)cc-3oc3cc(N(C)C)ccc23)c1)NC(=O)[C@H](C)NC(=O)[C@@H](NC(=O)[C@H](Cc1c[nH]cn1)NC(=O)[C@@H](NC(=O)[C@H](CCC(=O)O)NC(=O)[C@H](C)NC(=O)[C@@H](NC(=O)[C@H](CC(C)C)NC(=O)[C@H](Cc1c[nH]cn1)NC(=O)[C@H](Cc1c[nH]cn1)NC(=O)[C@H](CC(C)C)NC(=O)[C@H](Cc1ccccc1)NC(=O)[C@H](Cc1ccccc1)NC(=O)[C@H](CCCNC(=N)N)NC(=O)[C@H](CCCNC(=N)N)NC(=O)[C@H](CCCNC(=N)N)NC(=O)[C@H](CC(C)C)NC(=O)[C@H](CC(=O)O)NC(=O)[C@H](CC(N)=O)NC(=O)[C@H](CC(C)C)NC(=O)[C@H](Cc1c[nH]cn1)NC(=O)[C@H](CCCCN)NC(=O)CNC(=O)[C@H](CC(C)C)NC(=O)[C@H](CC(N)=O)NC(=O)[C@H](Cc1c[nH]cn1)NC(=O)[C@H](CCSC)NC(=O)[C@H](CC(C)C)NC(=O)[C@H](CCC(N)=O)NC(=O)[C@@H](NC(=O)[C@H](CCC(=O)O)NC(=O)[C@H](CO)NC(=O)[C@@H](NC(=O)[C@@H](N)CO)C(C)C)[C@@H](C)CC)[C@@H](C)CC)[C@@H](C)CC)[C@@H](C)O)C(N)=O [PTH[1-16] PTHrP[17-36]] (H-SVSEIQLMHNLGKHLNDLRRRFFLHHLIAEIHTAK(X1)I-NH2; N-terminus assumed) |  |  |  |  |  | koff (nLuc-PTHR1): 0.0017 ± 0.001 s⁻¹; kon (nLuc-PTHR1): 530000 ± 30000 M⁻¹ s⁻¹; Emax (WT-PTHR1): 103 ± 4%
AVAEIQLMHQRAKWIQDARRRAFLHKLIAEIHTA-NH2 [LA-PTH, reference compound] |  |  |  |  |  | difference in KD between PTH and LA-PTH (nLuc-PTHR1; direct-binding assay, K35^TMR peptides): ~ 5 fold
M-PTH(1-14)-15K^TMR (peptide) | 310 | 0.024 | 77000 |  |  | Kd [3]: 106 nM; koff [3]: 0.018 s⁻¹; kon [3]: 180000 M⁻¹ s⁻¹
PTH(2-34): N-terminally truncated analogue of PTH(1-34) (VSEIQLMHNLGKHLNSMERVEWLRKKLQDVHNF-NH2; UniProt P01270 33-65, looked up, fragment) [reference compound] |  |  |  |  |  | EC50 for cAMP production relative to EC50 of PTH(1-34) (fold higher) (WT-PTHR1; estimated for the D-peptide): ~ 10 fold
PTHrP[1-18] PTH[19-34] hybrid, Lys35(TMR) (peptide) |  |  |  | 99 | 0.16 | 
PTHrP(1-34)-His5-Ile-K35^TMR (peptide) | 5 |  |  |  |  | 
LA-PTH (long-acting PTH), unlabeled (peptide) |  |  |  |  |  | IC50 [1]: 4.1 nM
PTHrP(1-36): N-terminal fragment of parathyroid hormone-related protein, literature comparator [reference compound] |  |  |  |  |  | KD with Ile5 relative to His5 at position 5 (fold lower) (nLuc-PTHR1; pH 7.5, K35^TMR-labeled peptides): ~ 5 fold
PTH[1-16] PTHrP[17-36] hybrid, Lys35(TMR) (peptide) | 3.4 | 0.0017 | 530000 | 103 | 0.79 | 
